Data published in patent US20040253250A1 (XCYTE THERAPIES, published 2004).
Blank lines part the entries; values can stand above or below the molecule they belong to. Bridge positions count the residues as written; N and C are the ends. Ends that are not written are not given here.

Key:
[1] = target: CD3εδ-Ig heterodimer (human) (UniProt P07766); test: BIACORE (SPR); Affinity (nM)
anti-CD3 mAb G19-4 = test: ELISA: immobilized G19-4 captures titrated CD3-Ig; detection with anti-human IgG hinge-CH2-CH3 HRP conjugate
CD3γ-Ig (human) = CD3γ-Ig (human) (UniProt P09693); test: ELISA, anti-CD3 mAb immobilized, fusion protein titrated
Chain of CD3γ-Ig (human) (P09693 23-116): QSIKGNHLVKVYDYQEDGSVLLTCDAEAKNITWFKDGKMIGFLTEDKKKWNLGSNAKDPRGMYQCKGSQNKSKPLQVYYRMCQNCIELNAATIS

[2] = target: CD3εγ-Ig heterodimer (human) (UniProt P07766); test: as above
Chain of CD3εγ-Ig heterodimer (human) (P07766 23-126, chain 1 of 2): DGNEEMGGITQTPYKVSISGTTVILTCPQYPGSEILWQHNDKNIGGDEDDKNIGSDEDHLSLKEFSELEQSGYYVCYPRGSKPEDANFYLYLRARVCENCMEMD
Chain of CD3εγ-Ig heterodimer (human) (P09693 23-116, chain 2 of 2, further chain): as the sequence (P09693 23-116) above

[3] = target: CD3εδ-Ig heterodimer (human) (UniProt P07766); test: as above
CD3ε-Ig (human) = CD3ε-Ig (human) (UniProt P07766); test: as above
Chain of CD3ε-Ig (human) (P07766 23-126): as the sequence (P07766 23-126, chain 1 of 2) above

CD28huIg = target: T1, CD28huIg (UniProt P10747 19-152); test: BIACORE (SPR), fusion protein immobilized, peptide in solution
T1 construct: Immobilized on the BIACORE chip; construct not described; also called CD28Ig; CD28-Ig; not shown: human Ig part (huIg), not further described
Procedure: BIACORE uses surface plasmon resonance (SPR) which occurs when surface plasmon waves are excited at a metal/liquid interface. Light is directed at, and reflected due to bimolecular interactions between analyte (in solution) and ligand (immobilized). CD3εδhuIg, CD3εεhuIg and CD28huIg were covalently immobilized on a carboxymethy dextran chip using EDC/NHS chemistry followed by blocking with ethanol amine. Peptides were dissolved in HBS buffer at pH 7.2 with or without 1% DMSO, and were allowed to pass over these fusion protein-immobilized surfaces. Non-specific binding was substrated by passing these peptides over a controlled surface prepared by immobilizing EDC/NHS alone followed by ethanolamine.

[4] = target: CD3εδ-Ig heterodimer (human) (UniProt P07766); test: BIACORE (SPR), fusion protein immobilized, peptide in solution; printed as Binding Affinity

Chain of CD3εδ-Ig heterodimer (human) (P07766 23-126, stated change not applied, chain 1 of 2): as the sequence (P07766 23-126, chain 1 of 2) above
Chain of CD3εδ-Ig heterodimer (human) (P04234 22-105, stated change not applied, chain 2 of 2, further chain): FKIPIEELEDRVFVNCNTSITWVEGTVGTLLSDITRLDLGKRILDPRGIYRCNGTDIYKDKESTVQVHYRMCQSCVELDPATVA

Molecule: anti-CD3 mAb BC3 (antibody)
Kd [1]: 5.7 nM

Molecule: YCYDDHTCY (disulfide 2-8 (inferred)) [YCYDDHTCY (SEQ ID NO:78)]
binding result (CD28huIg): no binding

Molecule: YCYDDHQCY (disulfide 2-8 (inferred)) [YCYDDHQCY (SEQ ID NO:79)]
binding result (CD28huIg): no binding

Molecule: YCYDYDGCY (disulfide 2-8 (inferred)) [YCYDYDGCY (SEQ ID NO:75)]
binding result (CD28huIg): no binding

Molecule: YCYDYDYCY (disulfide 2-8 (inferred)) [YCYDYDYCY (SEQ ID NO:76)]
binding result (CD28huIg): no binding

Molecule: YCYDYDGCY (disulfide 2-8 (inferred)) [… (SEQ ID NO:75)]
Kd [4]: 10000 nM

Continued, values first:

EC50 (read off the curve) (anti-CD3 mAb G19-4): 0.1 µg/mL
Molecule: CD3εδ-Ig heterodimer (from UniProt P07766 23-126; P04234 22-105) (Fc fusion)

EC50 (read off the curve) (anti-CD3 mAb G19-4): 0.8 µg/mL
Molecule: CD3εγ-Ig heterodimer (from UniProt P07766 23-126; P09693 23-116) (Fc fusion)

Kd [1]: 1.28 nM | saturating concentration of the fusion protein (CD3γ-Ig (human)): > 100 µg/mL | saturating concentration of the fusion protein [2]: 20 µg/mL | saturating concentration of the fusion protein [3]: 4 µg/mL | saturating concentration of the fusion protein (CD3ε-Ig (human)): > 100 µg/mL
Molecule: anti-CD3 mAb G19-4 (antibody)

Kd [1]: 7.58 nM
Molecule: anti-CD3 mAb 64.1 (antibody)

Kd [4]: 500 nM
Molecule: YCFDWKNCY (disulfide 2-8 (inferred)) [… (SEQ ID NO:80)]

binding result (CD28huIg): no binding
Molecule: YCFDWKNCY (disulfide 2-8 (inferred)) [YCFDWKNCY (SEQ ID NO:80)]

binding result (CD28huIg): no binding
Molecule: YCYDYDFCY (disulfide 2-8 (inferred)) [YCYDYDFCY (SEQ ID NO:77)]
